One data set concerns the target T1, JrPHL8 (walnut (Juglans)?, UniProt A0A2I4DJV4 1-356).
T1 sequence: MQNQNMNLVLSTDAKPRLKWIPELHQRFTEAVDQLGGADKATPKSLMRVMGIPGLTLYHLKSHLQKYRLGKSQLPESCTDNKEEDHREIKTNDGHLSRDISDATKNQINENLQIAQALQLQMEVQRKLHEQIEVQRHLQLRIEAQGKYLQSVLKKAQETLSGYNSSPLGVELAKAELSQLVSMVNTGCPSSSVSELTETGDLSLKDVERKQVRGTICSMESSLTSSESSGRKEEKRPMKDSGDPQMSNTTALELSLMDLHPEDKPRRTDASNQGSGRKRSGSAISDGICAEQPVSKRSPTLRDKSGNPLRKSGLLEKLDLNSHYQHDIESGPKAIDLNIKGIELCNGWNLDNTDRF
The data set is described as follows: EMSA; LightShift Chemiluminescent EMSA Kit (Beyotime); cold probe 100-fold; buffer, salt, pH and temperature not stated. To be noted: protein: recombinant; tags: His (pET32a fusion); chain copies: 2; label: biotin; blunt. For orientation: Mobility shift assays separate free from complexed probe on a gel.

The next data set addresses JrWRKY4 (walnut (Juglans)?, UniProt A0A2I4E3K4 1-517). Described as above. To be noted: protein: recombinant; tags: pET32a fusion (Trx-His; article states His-tagged); label: biotin; blunt.

JrWRKY4, sequence (A0A2I4E3K4 entry or part of it): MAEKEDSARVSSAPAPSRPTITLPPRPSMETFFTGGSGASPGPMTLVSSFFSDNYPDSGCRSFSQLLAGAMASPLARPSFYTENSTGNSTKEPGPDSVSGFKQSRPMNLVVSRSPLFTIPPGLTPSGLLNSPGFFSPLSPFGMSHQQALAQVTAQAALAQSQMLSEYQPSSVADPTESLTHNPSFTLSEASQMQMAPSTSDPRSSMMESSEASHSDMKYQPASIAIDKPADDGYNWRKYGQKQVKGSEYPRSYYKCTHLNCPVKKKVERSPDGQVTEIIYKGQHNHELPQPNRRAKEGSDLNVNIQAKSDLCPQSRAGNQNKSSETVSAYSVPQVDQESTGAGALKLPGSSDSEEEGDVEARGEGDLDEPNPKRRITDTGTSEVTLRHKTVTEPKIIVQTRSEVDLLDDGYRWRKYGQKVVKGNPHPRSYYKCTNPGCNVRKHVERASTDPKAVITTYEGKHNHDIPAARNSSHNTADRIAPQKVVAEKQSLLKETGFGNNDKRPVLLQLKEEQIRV

B1: proJrWRKY4-MBS (dsDNA)
DNA 1: TTCACTATTACTGATATTCTCAACAGAAAAATGTCTAAGAGACAAT
DNA 2: ATTGTCTCTTAGACATTTTTCTGTTGAGAATATCAGTAATAGTGAA
As to B1, in the data set with JrPHL8, the binding result was “binds”.

B2: proJrSTH2L-Wbox (dsDNA)
DNA 1: AACCTAAACCCTTTGTGAAGTTGACCAGATCCTCAACCCGGGATGG
DNA 2: CCATCCCGGGTTGAGGATCTGGTCAACTTCACAAAGGGTTTAGGTT
Turning to B2, in the data set with JrWRKY4, the binding result is given as “binds”.

(Values after article PMC11233879, “JrPHL8-JrWRKY4-JrSTH2L module regulates resistance to Colletotrichum gloeosporioides in walnut”.)
